Seven molecules from patent US20190002548A1 (Chugai, published 2019) can be followed below.

The chains are these.
T1: Human mature myostatin (myostatin mature form; recombinant mature myostatin) (human (mature form 100% identical in …, UniProt O08689 268-376 (mouse entry), biotinylated in the Biacore assay (immobilized on a streptavidin chip); not labelled in the HEK Blue Assay)
T1 sequence: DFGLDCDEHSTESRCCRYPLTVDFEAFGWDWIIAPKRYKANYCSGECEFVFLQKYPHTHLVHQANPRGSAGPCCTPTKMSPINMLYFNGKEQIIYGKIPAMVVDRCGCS

B1: MS_MST0226Hc-G1m/MST0226La-kOMTC (antibody, human IgG1, kappa, V domains shown)
VH: QSVEESGGRLVTPGGSLTLTCTVSGFSLSNYVMGWVRQAPGKGLEWIGIINISGSTYYASWAKGRFTISRTSTTVDLKMTSLTTEDTATYFCARGGDNFGYSYIDFNLWGPGTLVTVSS
VL: AVVMTQTPASVSEPVGGTVTIKCQASQSISNELSWYRQKPGQPPKLLIYLASTLASGVPSRFKGSGSGTDFTLTISDLECADAATYYCQTYDGISSYGVAFGGGTKVVVER
B2: MS_MST0095Hf-G1m/MST0095Lf-kOMTC (antibody, human IgG1, kappa, V domains shown)
VH: QSVEESGGRLVTPGTPLTLTCTASGFSLSSYYMSWVRQAPGKGLEWIGIISSRGSTYYASWAKGRFTISKTSTTVDLKITSPTTEDTATYFCARGVVLWGPGTLVTVSS
VL: ALVMTQTPASVSAAVGGTVTINCQASESIYSGLAWYQQKPGQPPKLLIYSASTLASGVPSRFRGSGSGTEYTLTINDLECADAATYYCQAYDSTNWTFGGGTEVVVKR
B3: MS_M22601H1080-SG1/M22608L0846-SK1 (antibody, human IgG1, kappa, V domains shown)
VH: EVQLVESGGGLVQPGGSLRLSCAVSGFTLSHYVKGWVRQAPGKGLEWIGIINIEGSTYYASWAEGRFTISRDNSKNTVYLQMNSLRAEDTAVYFCARGHDNFGYSYHDFNLWGQGTLVTVSS
VL: AVVMTQSPATLSLSPGERVTLSCQASQSIHHDLSWYQQKPGQPPKLLIYLASTLASGVPSRFKGSGSGTDFTLTISSLQPEDAATYYCQTYDGISHYGVAFGQGTKVEIKR
notes: pH-dependent variant of MSLO00-SG1; also called MSLO04-SG1; LO04-SG1
B4: MS_M22601H1020-SG1/M22608L0744-SK1 (antibody, human IgG1, kappa, V domains shown)
VH: B3 VH with E54S, E64K
VL: B3 VL with D32E
notes: pH-dependent variant of MSLO00-SG1; also called MSLO01-SG1; LO01-SG1
B5: MS_M22601H1082-SG1/M22608L0837-SK1 (antibody, human IgG1, kappa, V domains shown)
VH: B3 VH with S56E, E64K
VL: B3 VL with Q27E, D32E
notes: pH-dependent variant of MSLO00-SG1; also called MSLO03-SG1; LO03-SG1
B6: MS_M22601H1080-SG1/M22608L0837-SK1 (antibody, human IgG1, kappa, V domains shown)
VH: B3 VH
VL: B3 VL with Q27E, D32E
notes: pH-dependent variant of MSLO00-SG1; also called MSLO02-SG1; LO02-SG1
B7: MS_M22601H-SG1/M22608L-SK1 (antibody, human IgG1, kappa, V domains shown)
VH: B3 VH with H31N, K34M, E54S, E64K, H99G, H107I
VL: B3 VL with H30S, H31N, D32E, H96S
notes: Humanized form of MST0226-G1m; the non pH-dependent antibody; also called MSLO00-SG1; LO00-SG1

Usually koff stands for the rate constant with which the complex falls apart.

Where a chain is given by its changes, count along the chain named. In names and notes the source's numbering stands.

One assay addresses T1, Human mature myostatin (myostatin …). Briefly: cell-based or functional assay.
As for B1, the “IC50 (read off the curve); HEK Blue Assay (SEAP reporter, OD620)” value (“IC50 (read off the curve)” for short) is around 7 ng/mL.
In the case of B2, the “IC50 (read off the curve)” value is around 4 ng/mL.

Another assay shares this target. Kind of assay: cell-based or functional assay. The source holds these as a separate data set.
Consider B3, for which the “IC50 (read off the curve)” value is around 6 ng/mL.

The target is the same in the next assay. Briefly: SPR, Biacore T200, 37 degrees C; biotinylated mature myostatin on streptavidin chip, 100 nM antibody bound at pH 7.4; dissociation phase at pH 5.8. The method, then: (§1) pH dependent binding of MST0226 variants to human mature myostatin were determined at 37 degrees C. using Biacore T200 instrument (GE Healthcare). Biotinylated mature myostatin was immobilized onto streptavidin sensor chip (GE Healthcare). In order to assess pH dependent binding of MST0226 variants to mature myostatin, 100 nM of antibodies were injected over mature myostatin sensor surface at pH 7.4 (20 mM ACES, 150 mM NaCl, 1.2 mM CaCl₂), 0.05% Tween 20, 0.005% NaN₃), followed by dissociation at pH 7.4 and an additional dissociation phase at pH5.8. This is to assess the pH-dependent dissociation of antibody/antigen complexes formed at pH 7.4. The dissociation rate (kd) at both pH 7.4 and pH 5.8 buffer was determined by processing and fitting data using Scrubber 2.0 (BioLogic Software) curve fitting software. The ratio of (kd at pH5.8)/(kd at pH 7.4) gives indication of pH dependent binding, e.g. ratio>1 indicates pH dependent binding. The sensor surface was regenerated each cycle with 10 mM Glycine-HCl, pH 1.7.
For orientation: SPR reads the build-up and loss of mass on a sensor chip optically.
For the molecule B4, the koff amounted to 0.00228 s⁻¹.
Consider B3, for which the koff turned out to be 0.00109 s⁻¹.
Consider B5, for which the koff amounted to 0.00321 s⁻¹.
The same measure, in the same setting: the figure for B6 is 0.00254 s⁻¹; for B7 it is 6.04e-05 s⁻¹.

The target is the same in a further assay. Kind of assay: SPR, Biacore T200, 37 degrees C; biotinylated mature myostatin on streptavidin chip, 100 nM antibody bound at pH 7.4; dissociation phase at pH 7.4. The procedure: as §1
Consider B4, for which the koff is 0.000131 s⁻¹.
Same read-out and setting: the value for B3 was 4.19e-05 s⁻¹.
Still for that read-out and setting: the value for B5 was 0.00012 s⁻¹; that for B6 was 9.7e-05 s⁻¹; that for B7 was 7.82e-05 s⁻¹.

For the next assay the target is unchanged. Kind of assay: SPR (Biacore T200, 37 degrees C), biotinylated mature myostatin on streptavidin chip, 100 nM antibody, dissociation at pH 7.4 then pH 5.8. The method, then:
as §1
On to B4, for which the “ratio of (kd at pH5.8)/(kd at pH 7.4)” value amounted to 17.
On the same count and under the same terms, the value for B3 was 17; that for B5 was 17; that for B6 was 17.

For a further assay the target is unchanged. Briefly: SPR, Biacore T200, 37 degrees C; biotinylated mature myostatin on streptavidin chip; ratio of dissociation rates. The procedure: as §1
With B4, the “Ratio of (kd pH 5.8)/(kd pH 7.4)” value worked out at 17.4.
On to B3, for which the “Ratio of (kd pH 5.8)/(kd pH 7.4)” value worked out at 25.9.
Still for that read-out and setting: the value for B5 was 26.8; that for B6 was 26.2.
The same measure, in the same setting: the figure for B7 is 0.8.
